# Laboratory results taken from patent EP4682166A1 (Guangzhou Enmai Biotechnology Co., Ltd, dated 2026).
# T1: human NMI (N-myc Interacting protein), recombinant protein (human, UniProt Q13287 1-307, limits assumed)
# T1 construct: Gene ID: 9111; also called hNMI; antigen
# T1 sequence (looked up): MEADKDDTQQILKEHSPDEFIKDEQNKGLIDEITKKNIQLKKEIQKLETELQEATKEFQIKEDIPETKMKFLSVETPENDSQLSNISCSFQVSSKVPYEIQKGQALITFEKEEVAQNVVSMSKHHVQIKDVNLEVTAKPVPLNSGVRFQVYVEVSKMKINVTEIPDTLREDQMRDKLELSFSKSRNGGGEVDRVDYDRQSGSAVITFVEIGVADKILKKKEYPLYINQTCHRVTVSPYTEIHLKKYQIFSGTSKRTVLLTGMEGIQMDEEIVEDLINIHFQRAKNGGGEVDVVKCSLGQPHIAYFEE
# T2: human NMI (N-myc Interacting protein) (human) (UniProt Q13287)
# T2 sequence (looked up): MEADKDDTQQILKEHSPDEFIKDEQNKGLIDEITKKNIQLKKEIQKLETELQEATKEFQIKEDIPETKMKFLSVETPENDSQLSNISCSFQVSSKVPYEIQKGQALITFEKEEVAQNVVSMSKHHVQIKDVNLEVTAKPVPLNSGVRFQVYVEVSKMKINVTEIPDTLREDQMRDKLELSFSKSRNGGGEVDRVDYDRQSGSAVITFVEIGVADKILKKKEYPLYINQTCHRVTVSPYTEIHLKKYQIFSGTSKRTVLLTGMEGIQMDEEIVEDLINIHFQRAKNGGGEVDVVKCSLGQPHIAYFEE
# Legend:
# [1] = target: T1, human NMI (N-myc Interacting protein), …; test: sandwich ELISA; detection 94C4-1-biotin 1µg/mL; hNMI 3,125.000 pg/mL
# [2] = target: T1, human NMI (N-myc Interacting protein), …; test: sandwich ELISA; detection 94C4-1-biotin 0.5µg/mL; hNMI 781.250 pg/mL
# [3] = target: T1, human NMI (N-myc Interacting protein), …; test: sandwich ELISA; detection 94C4-1-biotin 0.5µg/mL; hNMI 12,500.000 pg/mL
# [4] = target: T1, human NMI (N-myc Interacting protein), …; test: ELISA, binding to hNMI
# [5] = target: T1, human NMI (N-myc Interacting protein), …; test: sandwich ELISA; detection 94C4-1-biotin 1µg/mL; hNMI 25,000.000 pg/mL
# [6] = target: T1, human NMI (N-myc Interacting protein), …; test: sandwich ELISA; detection 94C4-1-biotin 0.5µg/mL; hNMI 6,250.000 pg/mL
# [7] = target: T1, human NMI (N-myc Interacting protein), …; test: sandwich ELISA; detection 94C4-1-biotin 1µg/mL; hNMI 390.625 pg/mL
# [8] = target: T1, human NMI (N-myc Interacting protein), …; test: sandwich ELISA; detection 94C4-1-biotin 1µg/mL; hNMI 48.828 pg/mL
# [9] = target: T1, human NMI (N-myc Interacting protein), …; test: sandwich ELISA; detection 98G10-1-biotin; hNMI 100.000 ng/mL
# [10] = target: T1, human NMI (N-myc Interacting protein), …; test: sandwich ELISA; detection 39B4-1-biotin; hNMI 100.000 ng/mL
# [11] = target: T1, human NMI (N-myc Interacting protein), …; test: sandwich ELISA; detection 94C4-1-biotin 1µg/mL; hNMI 195.313 pg/mL
# [12] = target: T2, human NMI (N-myc Interacting protein) (human); test: magnetic-bead chemiluminescent sandwich; capture 98G10 beads (0.5 mg 98G10), detection acridinium-B-8; hNMI 1000 pg/ml
# [13] = target: T2, human NMI (N-myc Interacting protein) (human); test: magnetic-bead chemiluminescent sandwich, kit of Example 8-1; capture 98G10 beads, detection acridinium-B-8; series 1, hNMI 16000 pg/mL
# [14] = target: T2, human NMI (N-myc Interacting protein) (human); test: magnetic-bead chemiluminescent sandwich; capture 98G10 beads, detection acridinium-B-8 (1.0 mg B-8 labelled); hNMI 2000 pg/mL
# [15] = target: T2, human NMI (N-myc Interacting protein) (human); test: magnetic-bead chemiluminescent sandwich, kit of Example 8-1; capture 98G10 beads, detection acridinium-B-8; series 2, hNMI 5000 pg/mL
# [16] = target: T2, human NMI (N-myc Interacting protein) (human); test: magnetic-bead chemiluminescent sandwich; capture 98G10 beads, detection acridinium-B-8 (1.0 mg B-8 labelled); hNMI 100 pg/mL
# [17] = target: T2, human NMI (N-myc Interacting protein) (human); test: magnetic-bead chemiluminescent sandwich, kit of Example 8-1; capture 98G10 beads, detection acridinium-B-8; series 3, hNMI 4000 pg/mL
# [18] = target: T2, human NMI (N-myc Interacting protein) (human); test: magnetic-bead chemiluminescent sandwich, kit of Example 8-1; capture 98G10 beads, detection acridinium-B-8; series 2, hNMI 150 pg/mL
# [19] = target: T2, human NMI (N-myc Interacting protein) (human); test: magnetic-bead chemiluminescent sandwich, kit of Example 8-1; capture 98G10 beads, detection acridinium-B-8; series 1, hNMI 1000 pg/mL
# [20] = target: T2, human NMI (N-myc Interacting protein) (human); test: magnetic-bead chemiluminescent sandwich, kit of Example 8-1; capture 98G10 beads, detection acridinium-B-8; series 2, hNMI 1800 pg/mL
# [21] = target: T2, human NMI (N-myc Interacting protein) (human); test: magnetic-bead chemiluminescent sandwich; capture 98G10 beads (1.0 mg 98G10), detection acridinium-B-8; hNMI 50 pg/ml
# [22] = target: T2, human NMI (N-myc Interacting protein) (human); test: magnetic-bead chemiluminescent sandwich, kit of Example 8-1; capture 98G10 beads, detection acridinium-B-8; series 3, hNMI 50 pg/mL
# [23] = target: T2, human NMI (N-myc Interacting protein) (human); test: magnetic-bead chemiluminescent sandwich, kit of Example 8-1; capture 98G10 beads, detection acridinium-B-8; series 3, hNMI 200 pg/mL
# [24] = target: T2, human NMI (N-myc Interacting protein) (human); test: magnetic-bead chemiluminescent sandwich; capture 98G10 beads (1.0 mg 98G10), detection acridinium-B-8; hNMI 100 pg/ml
OD450 [1] [OD450],OD450 [2] [OD450],OD450 [3] [OD450],OD450 [5] [OD450],OD450 [6] [OD450],OD450 [7] [OD450],OD450 [8] [OD450],OD450 [9] [OD450],OD450 [10] [OD450],OD450 [11] [OD450],Binder,other results
0.75,0.265,2.03,2.79,1.29,0.206,0.139,3.02,3.07,0.173,"monoclonal antibody B-8 (antibody, V domains shown, Rabbit monoclonal antibody; also called B8-1) VH: QSLEESGGDLVKPGASLTLTCTASGFSFSSSYYMCWVRQAPGKGLEWIACIYAGSSGSTYYASWAKGRFTISKTSSTTVTLQMTSLTAADTATYFCAREYSYDDYGDFWGFNLWGPGTLVTVSS VL: ALVMTQTPSSVSAAVGGTVTINCQASQNIYTNLAWYQQKPGQPPKLLIYGASNLESGVPSRFKGSGSGTEYTLTISDLECDDAATYYCQSSLYSRIADRANAFGGGTEVVVK",EC50 [4]: 309 pM
–,–,–,–,–,–,–,–,–,–,"acridinium ester-labeled monoclonal antibody B-8 (antibody, V domains shown, acridinium ester label on the antibody, site not stated) VH: QSLEESGGDLVKPGASLTLTCTASGFSFSSSYYMCWVRQAPGKGLEWIACIYAGSSGSTYYASWAKGRFTISKTSSTTVTLQMTSLTAADTATYFCAREYSYDDYGDFWGFNLWGPGTLVTVSS VL: ALVMTQTPSSVSAAVGGTVTINCQASQNIYTNLAWYQQKPGQPPKLLIYGASNLESGVPSRFKGSGSGTEYTLTISDLECDDAATYYCQSSLYSRIADRANAFGGGTEVVVK",Signal value [12]: 97600; Signal value [13]: 1.21e+06; Signal value [14]: 204000; Signal value [15]: 560000; Signal value [16]: 9490; Signal value [17]: 572000; Signal value [18]: 15500; Signal value [19]: 57600; Signal value [20]: 181000; Signal value [21]: 11100; Signal value [22]: 6120; Signal value [23]: 25700; Signal value [24]: 20400
0.958,0.396,2.32,2.75,1.58,0.255,0.167,3.14,3.12,0.212,"monoclonal antibody 240B10-1 (antibody, V domains shown, Rabbit monoclonal antibody) VH: QSLEESGGRLVTPGGSLTLTCTVSGIDLSSYTMGWVRQAPGKGLEYIGIISGGGRTYYASWAKGRFTISKTSSTTVDLKVTSLTTEDTATYFCARIYTLWGQGTLVTVSS VL: QVLTQTLASVSAAVGGTVTINCQSSQSVYNNDYLAWFQQKSGQPPKQLIHSASKLASGVPSRFKGSGSGTQFTLTINDVQCDDAATYYCLGGYDCYSADCNVFGGGTEVVVK",–
